Molecular target: chicken IgY (chicken)
Experiment: BLI; Octet SAX biosensors, as described previously (ref. 10); kinetic 1:1 model, global fits over multiple Fab concentrations

chicken IgY (chicken), sequence (main, as listed by the source): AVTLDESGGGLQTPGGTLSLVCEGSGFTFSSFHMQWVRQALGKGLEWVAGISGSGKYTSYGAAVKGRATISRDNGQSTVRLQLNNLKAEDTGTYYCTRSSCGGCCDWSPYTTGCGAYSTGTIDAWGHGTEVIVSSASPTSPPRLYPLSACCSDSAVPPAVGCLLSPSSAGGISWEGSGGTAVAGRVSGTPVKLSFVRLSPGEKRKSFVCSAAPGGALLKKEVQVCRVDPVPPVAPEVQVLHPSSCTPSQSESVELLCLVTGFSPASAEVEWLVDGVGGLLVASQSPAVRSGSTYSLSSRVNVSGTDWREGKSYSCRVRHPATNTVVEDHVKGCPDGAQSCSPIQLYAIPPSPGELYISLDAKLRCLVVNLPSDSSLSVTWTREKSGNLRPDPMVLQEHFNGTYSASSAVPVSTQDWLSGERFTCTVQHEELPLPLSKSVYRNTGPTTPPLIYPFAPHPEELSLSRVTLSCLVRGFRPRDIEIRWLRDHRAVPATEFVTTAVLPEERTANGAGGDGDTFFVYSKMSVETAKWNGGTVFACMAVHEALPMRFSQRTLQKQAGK

Kd: 62 pM
B1: 2.1^hi Fab (D28HA, K49HR, S64HG, A40LG, Y42LF, A52LS, Q105LH, N108LY) (Fab, V domains shown)
VH: EVQLQESGPSLVKPSQTLSLTCSVTGASITSGYWNWIRKFPGNRLEYMGYISYSGGTYYNPSLKSRISITRDTSKNQYYLQLNSVTTEDTATYYCARDFDVWGAGTTVTVSS
VL: DIVMTQSQKFMSTSVGDRVSVTCKASQNVGTNVGWFQQKPGQSPKSLIYSASYRYSGVPDRFTGSGSGTDFTLTISNVQSEDLAEYFCHQYYSYPLTFGSGTKLEIK
